These results are taken from publication PMC7112767.

This experiment addresses IL-1β mutant with pBpa at position 63 (Homo sapiens). The experiment in a line: cross-linking.

Regarding “monoclonal phage displaying the scFv of canakinumab”, the UV output (CFU) is 6400 CFU and the UV/non-UV output ratio amounted to 3.8.
